Here are results for one molecule from US7910344B2, “Proteins having tyrosinase activity” (Valtion teknillinen tutkimuskeskus, priority 2005, dated 2011).

“Also recorded” adds a separate entry of the source.

The test system of one series is α-casein. Briefly: Cross-linking of model proteins followed by changes in MW on SDS-PAGE. The method, then: The cross-linking ability in model proteins of TYR2 was also analyzed by following changes in MW on SDS-PAGE. […] Details are given in examples 8 and 9.
The subject of a further series is caseinate. In words: Caseinate gel hardness by Texture Analyzer. The conditions noted are these: 3% caseinate, 0.4% GDL, 20 nkat/g protein TYR2, 22 hours, room temperature. As for the experimental part: 3% of commercial caseinate was mixed in water and 0.4% GDL (glucono-delta-lactone) and 20 nkat/g protein of TYR2 was added to the mixture. It was allowed to rest for 22 hours at room temperature, whereafter the gel hardness was measured by Texture Analyzer (FIG. 6).

For series [1], the system named is salt soluble proteins (SSP) of chicken breast muscle myofibrils. Briefly: Cross-linking of chicken myofibril salt soluble proteins followed by SDS-PAGE. The method, then:
Changes in the molecular weight of the isolated salt soluble proteins (SSP) of chicken breast muscle myofibrils caused by TYR2 were analysed by SDS-PAGE. SPP were isolated according to Xiong and Brekke, 1989. For enzyme treatment SSP was suspended in 50 mM Na-phosphate buffer, pH 7, containing 0.6 M NaCl to the protein concentration of 3 mg/ml. 120 nkat or 240 nkat of TYR2 per gram of protein was added to the suspension. Control suspension was treated in a similar way but without enzyme addition. Reaction mixture was incubated at 30° C. Samples were drawn at the time points of 2 min, 1 hour, 3 hours and 24 hours. SDS-PAGE sample buffer was added and the samples were heated in a boiling water bath. 20 μg of protein from each sample was loaded onto 12% Tris-HCl polyacryl amide gels. SDS-PAGE was performed according to Laemmli, 1970.

The nature of another series: Isoelectric focusing. Type of series: physicochemical. To be noted: purified TYR2, Coomassie Blue staining, pH range 3.5-9.5. As for the experimental part:
The isoelectric point (pI) of the enzyme from culture supernatant and purified enzyme was determined by isoelectric focusing within a pH range of 3.5-9.5 (Ampholine PAGplate 3.5-9.5 for IEF, Amersham Bioscience) on an LKB 2117 Multiphor II Electrophoresis System (LKB Pharmacia, Bromma, Sweden) according to manufacturer's instructions. Bands containing tyrosinase activity were visualized by staining the gel with 15 mM L-Dopa in 0.1 M sodium phosphate buffer (pH 7.0) and proteins by Coomassie Blue staining. […] Under native conditions in isoelectric focusing both the culture filtrate and the purified tyrosinase didn't show a clear band, when stained with L-Dopa, instead the activity was observed as a brown zone at about pH 9.

Series [2] in a line: pH optimum of the tyrosinase by oxygen consumption measurements. Format: biochemical. The conditions noted are these: 15 mM L-Dopa, 4.3 μg purified tyrosinase. As for the experimental part:
pH optimum for the tyrosinase was studied by oxygen consumption measurements. Measurements were performed with a single channel oxygen meter (Precision sensing GmbH, Germany) containing fiber-optic oxygen minisensors with measurement range 0-100% oxygen. L-Dopa in 15 mM concentration, dissolved in 0.1 M sodium phosphate buffer, pH 7.0, was used as substrate. Reactions were carried out with 1.8 ml substrate solution and with 4.3 μg of the purified T. reesei tyrosinase. Three different buffers were used according to their buffer capacity. McIlvaine buffer was used within a pH range of 2-7, Tris-HCl buffer (50 mM) within a pH range 7-9 and borate buffer (12.5 mM) within a pH range of 8-9.5. The pH optimum of TYR2 is at 8-8.5. The enzyme has relatively high activity within a quite wide pH range, 5-9. […] In the measurements with Tris-HCl buffer in pH 8, 8.5 and 9.0 also a blank test without enzyme addition was performed to correct the effect of auto-oxidation in results. The pH optimum of the tyrosinase seemed to be dependant on the buffer.

The nature of series [3]: Stability of the enzyme at different pH-values (residual activity on L-Dopa). Type of series: physicochemical. The conditions noted are these: McIlvaine buffer, room temperature. As for the experimental part: The stability of the enzyme at different pH-values was determined in McIlvaine, 50 mM Na2HPO4-25 mM citric acid, buffer by incubating the enzyme solution in different pH-values at room temperature. The residual tyrosinase activity was determined by measuring the activity of the enzyme solutions with L-Dopa as substrate.

The test system of series [4] is chicken breast myofibrils. In words: Gel forming of chicken myofibril matrix, storage modulus (G′), Bohlin Rheometer. To be noted: 240 nkat TYR2/g protein, 25, 30 and 40° C., 3 hours, pH 6. As for the experimental part:
Ability of TYR2 to form cross-links in a chicken myofibril matrix was also investigated as a development of storage modulus (G′) measuring gel forming ability at low deformation. Measurements were carried out during heating at constant temperature using a Bohlin Rheometer. Chicken breast myofibrils were isolated according to Xiong and Brekke (1989) omitting EDTA and NaN3 from the isolation buffer. Isolated myofibrils were suspended in 50 mM Na-phosphate buffer, pH 6, supplemented with 0.30 M NaCl to the protein concentration of 40 mg/ml. Suspensions were treated with 240 nkat of TYR2 per gram of protein at 25° C., 30° C. and 40° C. for 3 hours. Control samples were treated in a similar way but without enzyme.

Series [5] is described as follows: Kieffer extensibility test of wheat dough. The conditions noted are these: 1 and 10 nkat/g flour, resting 15-45 min, about 22° C. The method, then:
The influence of TYR2 on the large deformation rheology of wheat dough was investigated by using Kieffer extensibility rig (Stable Micro Systems, Ltd. United Kingdom). Dough extensibility and resistance to extension were measured as a function of enzyme dosage and dough's resting time.
Wheat flour was mixed with Farinograph (Brabender, Germany) using 12 g flour and 7.2 ml liquid phase (60%). Tyrosinase (1 and 10 nkat/g flour) was added to water right before mixing with flour. Mixing time was 4 min. Subsequently, dough was placed into a mould to produce approximately 10-12 test strings. The pressed mould was kept at room temperature for 15-45 min to allow stress relaxation. In the Kieffer tests, dough strings were centrally extended until the elastic limit of the string was exceeded and it ruptured. Maximum resistance Rmax, maximum extensibility Emax and extensibility Ex at Rmax were determined by recording the peak force and the distance at the maximum and at the extension limit. All dough preparations, enzyme treatments and measurements were performed at room temperature, approximately at 22° C.

B1: TYR2: extracellular tyrosinase of Trichoderma reesei encoded by tyr2, SEQ ID NO:4, 571 amino acids, C-terminally processed (protein, listed as Trichoderma reesei)
chain: MLLSASLSALALATVSLAQGTTHIPVTGVPVSPGAAVPLRQNINDLAKSGPQWDLYVQAMYNMSKMDSHDPYSFFQIAGIHGAPYIEYNKAGAKSGDGWLGYCPHGEDLFISWHRPYVLLFEQALVSVAKGIANSYPPSVRAKYQAAAASLRAPYWDWAADSSVPAVTVPQTLKINVPSGSSTKTVDYTNPLKTYYFPRMSLTGSYGEFTGGGNDHTVRCAASKQSYPATANSNLAARPYKSWILVTDTESGPQYDVLTNSQNFADFASTSGPGINVEQIHNAIHWDGACGSQFLAPDYSGFDPLFFMHHAQVDRMWAFWEAIMPSSPLFTASYKGQSRFNSKSGSTITPDSPLQPFYQANGKFHTSNTVKSIQGMGYSYQGIEYWQKSQAQIKSSVTTIINQLYGPNSGKKRNAPRDFLSDIVTDVENLIKTRYFAKISVNVTEVTVRPAEINVYVGGQKAGSLIVMKLPAEGTVNGGFTIDNPMQSILHGGLRNAVQAFTEDIEVEILSKDGQAIPLETVPSLSIDLEVANVTLPSALDQLPKYGQRSRHRAKAAQRGHRFAVPHIPPL
modifications: C-terminally processed
For B1, the “Cross-linking ability (changes in MW on SDS-PAGE)” value in the series on α-casein is on record as “able to cross-link”. Further, the “Hardness of caseinate gel” value with caseinate was “doubled the hardness of the caseinate gel”. In addition, the “Detectable electrophoretic changes of SSP” value in series [1] (120 or 240 nkat TYR2/g protein, 30° C., pH 7, up to 24 h) is listed as “progressive disappearance of the myosin band of ˜200 kDa; also recorded: progressive disappearance of the band of ˜36 kDa; also recorded: appearance of large molecular weight protein products (>200 kDa)”. Also, the “Cross-linking ability (changes in MW on SDS-PAGE)” value in series [1] (chicken myofibril) is reported as “able to cross-link”. In addition, the “Isoelectric point (bands in isoelectric focusing)” value in “Isoelectric focusing” was around 9. In addition, the “pH range of relatively high activity” value in series [2] is 5-9. Further, in series [2] (McIlvaine, Tris-HCl, borate buffers), the pH optimum is listed as 8-8.5. Moreover, the pH stability entry in series [3] was “good stability at neutral and alkaline pH”. For the same molecule, the “Storage modulus (G′), gel forming” value in series [4] was “greater increase in G′”. In addition, in series [5], the “Dough extensibility Ex at Rmax” value was “decreased the dough extensibility Ex at Rmax” and the “Maximum resistance Rmax of dough” value was “increased the maximum resistance Rmax of dough”.
